{"source": "paper PMC9636267", "about": "(2022)", "experiment_in_all_cases": "SPR", "key": {"[1]": {"molecular_target": "T1, HCoV-229E RBD (294–435 aa) (human coronavirus 229E, UniProt P15423 294-435)", "T1 chain": "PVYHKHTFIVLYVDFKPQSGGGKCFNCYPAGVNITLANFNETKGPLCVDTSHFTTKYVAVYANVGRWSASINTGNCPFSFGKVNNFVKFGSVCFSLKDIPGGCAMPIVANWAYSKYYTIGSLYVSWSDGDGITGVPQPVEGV"}, "[2]": {"molecular_target": "T2, HCoV-229E S1 subunit (17–560 aa) (human coronavirus 229E, UniProt P15423 17-560)", "T2 chain": "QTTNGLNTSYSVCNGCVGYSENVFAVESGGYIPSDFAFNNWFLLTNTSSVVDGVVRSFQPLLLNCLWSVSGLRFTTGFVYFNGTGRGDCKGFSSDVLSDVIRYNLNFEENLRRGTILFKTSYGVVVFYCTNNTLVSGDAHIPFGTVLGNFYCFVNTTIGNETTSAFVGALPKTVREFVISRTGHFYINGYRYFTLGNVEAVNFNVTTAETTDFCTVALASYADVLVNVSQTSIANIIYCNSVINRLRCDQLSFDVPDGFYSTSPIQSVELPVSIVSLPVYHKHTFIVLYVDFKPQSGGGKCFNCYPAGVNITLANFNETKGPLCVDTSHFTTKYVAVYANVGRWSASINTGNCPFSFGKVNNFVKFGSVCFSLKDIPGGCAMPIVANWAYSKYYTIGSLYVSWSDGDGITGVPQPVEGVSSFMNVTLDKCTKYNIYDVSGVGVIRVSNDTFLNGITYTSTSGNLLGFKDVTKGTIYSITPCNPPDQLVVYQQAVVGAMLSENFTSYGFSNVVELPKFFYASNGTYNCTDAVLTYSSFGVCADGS"}, "[3]": {"molecular_target": "T3, HCoV-229E S ectodomain (17–1115 aa), 229E S trimer (human coronavirus 229E, UniProt P15423 17-1115)", "T3 chain": "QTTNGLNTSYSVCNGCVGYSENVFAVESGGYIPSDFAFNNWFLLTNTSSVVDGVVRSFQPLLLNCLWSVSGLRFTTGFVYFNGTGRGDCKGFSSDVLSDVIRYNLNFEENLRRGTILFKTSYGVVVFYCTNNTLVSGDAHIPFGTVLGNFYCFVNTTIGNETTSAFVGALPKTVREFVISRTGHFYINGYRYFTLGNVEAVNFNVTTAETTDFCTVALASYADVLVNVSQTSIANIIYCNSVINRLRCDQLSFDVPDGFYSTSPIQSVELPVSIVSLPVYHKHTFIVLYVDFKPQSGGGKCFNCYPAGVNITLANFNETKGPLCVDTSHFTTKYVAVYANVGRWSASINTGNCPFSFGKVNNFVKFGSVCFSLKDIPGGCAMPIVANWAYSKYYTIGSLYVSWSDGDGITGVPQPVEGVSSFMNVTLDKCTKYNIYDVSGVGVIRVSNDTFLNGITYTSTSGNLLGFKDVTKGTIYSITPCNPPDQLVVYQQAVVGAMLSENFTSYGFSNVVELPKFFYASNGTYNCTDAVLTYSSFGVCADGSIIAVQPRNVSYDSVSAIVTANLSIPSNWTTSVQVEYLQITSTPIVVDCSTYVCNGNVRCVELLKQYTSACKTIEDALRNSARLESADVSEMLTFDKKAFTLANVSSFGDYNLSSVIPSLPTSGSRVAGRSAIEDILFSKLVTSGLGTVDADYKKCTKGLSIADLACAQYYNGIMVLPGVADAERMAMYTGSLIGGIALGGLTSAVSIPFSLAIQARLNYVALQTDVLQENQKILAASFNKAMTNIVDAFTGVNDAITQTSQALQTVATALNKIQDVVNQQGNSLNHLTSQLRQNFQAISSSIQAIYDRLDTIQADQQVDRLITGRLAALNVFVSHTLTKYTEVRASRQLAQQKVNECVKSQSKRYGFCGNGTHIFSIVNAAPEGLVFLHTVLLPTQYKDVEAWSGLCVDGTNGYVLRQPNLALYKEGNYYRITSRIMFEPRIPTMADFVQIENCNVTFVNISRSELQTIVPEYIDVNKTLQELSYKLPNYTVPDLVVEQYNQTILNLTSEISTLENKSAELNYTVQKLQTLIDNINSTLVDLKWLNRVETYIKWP"}, "[4]": {"molecular_target": "T3, HCoV-229E S ectodomain (17–1115 aa), …"}, "[5]": {"molecular_target": "T1, HCoV-229E RBD (294–435 aa)"}, "[6]": {"molecular_target": "T2, HCoV-229E S1 subunit (17–560 aa)"}}}
{"binder": "Fab C04 (Fab, V domains shown) VH: EVQLVESGGGLVQPGGSLRLSCAASGFNISSSYIHWVRQAPGKGLEWVASIYSSYGYTYYADSVKGRFTISADTSKNTAYLQMNSLRAEDTAVYYCARWWASVGGAGGGLDYWGQGTLVTVSS VL: DIQMTQSPSSLSASVGDRVTITCRASQSVSSAVAWYQQKPGKAPKLLIYSASSLYSGVPSRFSGSRSGTDFTLTISSLQPEDFATYYCQQGYGWLITFGQGTKVEIK", "values": [{"measurement": "Kd", "setting": "[1]", "result": 2.9, "unit": "nM"}, {"measurement": "Kd", "setting": "[2]", "result": 7.3, "unit": "nM"}, {"measurement": "Kd", "setting": "[3]", "result": 4.4, "unit": "nM"}, {"measurement": "koff", "setting": "[4]", "result": 0.0064, "unit": "s⁻¹"}, {"measurement": "koff", "setting": "[5]", "result": 0.0055, "unit": "s⁻¹"}, {"measurement": "koff", "setting": "[6]", "result": 0.007, "unit": "s⁻¹"}]}
